Assays:
[1] = target: MN V1/V2 scaffold, wildtype, gD-tagged, produced in GnTI- 293 HEK cells (herpes simplex virus 1; HIV-1 isolate MN) (UniProt Q69091); assay: ELISA; table row MN V1/V2 wt, GnTI-
[2] = target: MN V1/V2 scaffold, engineered, gD-tagged, produced in normal 293 HEK cells (herpes simplex virus 1; HIV-1 isolate MN); assay: ELISA; table row MN V1/V2.eng1*, column 293
[3] = target: A244 V1/V2 scaffold, wildtype, gD-tagged, produced in GnTI- 293 HEK cells (herpes simplex virus 1; HIV-1 isolate A244) (UniProt Q69091); assay: ELISA; table row A244 V1/V2 wt, GnTI-
Bal.01 V1/V2 wt (293) = assay: ELISA; table row Bal.01 V1/V2 wt, column 293
CAP.45 V1/V2 wt (293) = assay: ELISA; table row CAP.45 V1/V2 wt, column 293
Bal.01 V1/V2 wt (GnTI-) = assay: ELISA; table row Bal.01 V1/V2 wt, GnTI-
[4] = target: 108060 I169K/E172V/T161M/N156I/S164G/D167G V1/V2 scaffold, gD-tagged, produced in normal 293 HEK cells (herpes simplex virus 1; HIV-1 isolate 108060); assay: ELISA; table row 108060 V1/V2.eng1*, column 293
[5] = target: JRFL-E168K V1/V2 scaffold, wildtype, gD-tagged, produced in normal 293 HEK cells (herpes simplex virus 1; HIV-1 isolate JRFL) (UniProt Q69091); assay: ELISA; table row JRFL-E168K V1/V2 wt, column 293
[6] = target: ZM233 V1/V2 scaffold, engineered, gD-tagged, produced in GnTI- 293 HEK cells (herpes simplex virus 1; HIV-1 isolate ZM233); assay: ELISA; table row ZM233 V1/V2.eng1*, GnTI-
[7] = target: 108060-I169K V1/V2 scaffold, gD-tagged, produced in GnTI- 293 HEK cells (herpes simplex virus 1; HIV-1 isolate 108060); assay: ELISA; table row 108060 V1/V2 I169K, GnTI-
[8] = target: 108060 I169K/E172V/T161M/N156I/S164P/L165G V1/V2 scaffold, gD-tagged, produced in GnTI- 293 HEK cells (herpes simplex virus 1; HIV-1 isolate 108060); assay: ELISA; table row 108060 V1/V2.eng2**, GnTI-
[9] = target: JRFL-E168K V1/V2 scaffold, engineered, gD-tagged, produced in normal 293 HEK cells (herpes simplex virus 1; HIV-1 isolate JRFL); assay: ELISA; table row JRFL-E168K V1/V2.eng1*, column 293
[10] = target: ZM233 V1/V2 scaffold, engineered, gD-tagged, produced in normal 293 HEK cells (herpes simplex virus 1; HIV-1 isolate ZM233); assay: capture ELISA on 34.1 anti-gD; scaffold made in 293F cells
[11] = target: 108060 I169K/E172V V1/V2 scaffold, gD-tagged, produced in normal 293 HEK cells (herpes simplex virus 1; HIV-1 isolate 108060); assay: ELISA; table row 108060 V1/V2 I169K/E172V, column 293
[12] = target: A244 V1/V2 scaffold, wildtype, gD-tagged, produced in GnTI- 293 HEK cells (herpes simplex virus 1; HIV-1 isolate A244) (UniProt Q69091); assay: capture ELISA on 34.1 anti-gD; scaffold in medium of GnTI- cells
[13] = target: ZM233 V1/V2 scaffold, wildtype, gD-tagged, produced in GnTI- 293 HEK cells (herpes simplex virus 1; HIV-1 isolate ZM233); assay: as above
[14] = target: 108060 I169K/E172V/T161M/N156I/S164P/L165G V1/V2 scaffold, gD-tagged, produced in normal 293 HEK (293F) cells (herpes simplex virus 1; HIV-1 isolate 108060); assay: capture ELISA on 34.1 anti-gD; purified scaffold made in 293F cells
[15] = target: 108060 I169K/E172V/T161M/N156I/S164G/D167G V1/V2 scaffold, gD-tagged, produced in GnTI- 293 HEK cells (herpes simplex virus 1; HIV-1 isolate 108060); assay: capture ELISA on 34.1 anti-gD; purified scaffold made in GnTI- cells
[16] = target: 108060 I169K/E172V/T161M/N156I/S164P/L165G V1/V2 scaffold, gD-tagged, produced in GnTI- 293 HEK cells (herpes simplex virus 1; HIV-1 isolate 108060); assay: as above
[17] = target: JRFL-E168K V1/V2 scaffold, engineered, gD-tagged, produced in GnTI- 293 HEK cells (herpes simplex virus 1; HIV-1 isolate JRFL); assay: as above
[18] = target: MN V1/V2 scaffold, engineered, gD-tagged, produced in GnTI- 293 HEK cells (herpes simplex virus 1; HIV-1 isolate MN); assay: as above
[19] = target: 1209 V1/V2/V3/C3 scaffold grown in GnTI- cells; assay: ELISA, mAb titrated on scaffold, absorbance 492 nm; curve 505 (1209 GNTI-)
[20] = target: UCSC1207 V1/V2/V3 scaffold (glycosylation site moved from N334 to N332) grown in GnTI- cells (HIV-1 isolate A244 (clade CRF01-AE)); assay: ELISA, mAb titrated on scaffold, absorbance 492 nm; curve 512 (1207 GNTI-)
[21] = target: A244 V1/V2 scaffold, wildtype (unmutated), Strep-tag/6x Histidine-tag, expressed in GnTI- cells (HIV-1 isolate A244); assay: SPR (Biacore 3000), PG9 captured by anti-human Fc at about 100 RU, scaffold flowed, 1:1 Langmuir fit

Substance: PG9 monoclonal antibody
- EC50 [1]: > 10 µg/mL
- EC50 [2]: 0.0274 µg/mL
- EC50 [3]: 0.000741 µg/mL
- EC50 (Bal.01 V1/V2 wt (293)): 0.853 µg/mL
- EC50 (CAP.45 V1/V2 wt (293)): 0.312 µg/mL
- EC50 (Bal.01 V1/V2 wt (GnTI-)): 0.0802 µg/mL
- EC50 [4]: 0.093 µg/mL
- EC50 [5]: > 10 µg/mL
- EC50 [6]: 0.0085 µg/mL
- EC50 [7]: 0.679 µg/mL
- EC50 [8]: 0.00834 µg/mL
- EC50 [9]: 0.0473 µg/mL
- EC50 [10]: 0.002 µg/mL
- EC50 [11]: > 10 µg/mL
- EC50 [12]: 0.00074 µg/mL
- EC50 [13]: 0.0095 µg/mL
- EC50 [14]: 0.156 µg/mL
- EC50 [15]: 0.0068 µg/mL
- EC50 [16]: 0.00834 µg/mL
- EC50 [17]: 0.013 µg/mL
- EC50 [18]: 0.0079 µg/mL
- EC50 [19]: 0.14 µg/mL
- EC50 [20]: 0.02 µg/mL
- Kd [21]: 15 nM
